From article doi:10.1101/449629

Assays:
[1] = target: Recombinant hamster MIF (Syrian golden hamster macrophage migration inhibitory factor) (Syrian golden hamster (Mesocricetus auratus)); test: crystal structure
[2] = target: Recombinant hamster MIF (Syrian golden hamster macrophage migration inhibitory factor) (Syrian golden hamster (Mesocricetus auratus)); test: SEC

## Recombinant hamster MIF (Syrian golden hamster macrophage migration inhibitory factor) (from UniProt A0A140EDM8 1-115) (natural protein)
[1]
  stoichiometry N: 3
[2]
  stoichiometry N: 3
